As usually defined, the Kd is the free concentration of one partner at which half of the binding sites on the other are occupied at equilibrium, for simple one-to-one binding. A lower Kd goes with higher affinity.

The target in this assay is T1, B淋巴细胞刺激因子(BLyS)蛋白 (human, UniProt Q9Y275 134-285, biotinylated (生物素化, sites not stated)).
T1 construct: The protein was harvested from the culture supernatant, so it may be the soluble form; It was biotinylated for the ForteBio assay; also called BAFF; 抗原BLyS; not shown: His tag from vector p3457-his
Nature of the assay: ForteBio (BLI): biotinylated BLyS at 20 μg/ml loaded, B-11ScFv in 2-fold dilutions from 25 to 0.78125 μg/ml in PBS pH 7.4.

T1 sequence (Q9Y275 134-285): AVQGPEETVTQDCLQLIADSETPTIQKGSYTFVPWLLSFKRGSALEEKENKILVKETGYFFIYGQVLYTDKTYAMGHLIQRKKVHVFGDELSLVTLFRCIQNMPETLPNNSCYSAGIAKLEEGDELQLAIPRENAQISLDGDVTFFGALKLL

B1: 抗BLyS单链抗体B-11ScFv (scFv, V domains shown)
VH: EVQLQESGGGLVQPGGSLRLSCAASGFTFSRYWMLWVRQAPGKGLVWVSRINTDGSSTWYADSVKGRFTISRDNAKNTLYLQMNSLRAEDTAVYYCARDQDGVGATHDYWGQGTLVTVSS
notes: Secreted from 293E cells out of plasmid p3457B-11ScFv and purified on a nickel column, about 30 kDa; also called 11号ScFv; 抗人BLyS ScFv抗体; not shown: His tag from vector p3457his (Ni column purification, anti-His blot)
In turn, B1 showed a Kd of 3.08 nM.
